Measurements as given in patent publication US20090069241A1, “Compositions and Methods for Use of Pigment Epithelial Derived Factor (PEDF) Peptide Fragments” (Yale University, priority 2006, published 2009).

What was measured:
[1] = system: inner retina (INL, IPL, retinal ganglion cell layer); assay: Transient retinal ischemia-reperfusion injury with intravitreous injection; morphometric analysis of inner retina; type: in vivo, C57/B16 mice; design: thickness of the INL compared with non-ischemia control / thickness of the IPL compared with non-ischemia control / surviving cells in the RGC layer compared with non-ischemia control: concentration or dose not given beside the values; settings: for surviving cells in the RGC layer compared with non-ischemia control / thickness of the INL compared with non-ischemia control / thickness of the IPL compared with non-ischemia control: single intravitreous injection immediately after ischemia
Description: Induction of transient retinal ischemia in C57/B16 mice: Animal experiments were conducted in accordance with ARVO guidelines and were approved by the Animal Care and Use Committee of Yale University School of Medicine. Transient retinal ischemia was induced in one eye and the contralateral eye served as control. During the operation and recovery period, animals were placed on water heating pads at 37° C. […] Briefly, animals were anesthetized by i.p. injection of a mixture of 100 mg/kg Ketamine+10 mg/kg Xylazine. […] The anterior chambers were cannulated in fully anesthetized animals with a 30-gauge infusion needle connected by PE10 polyethylene tubing and IV set to a physiological saline reservoir. The intraocular pressure (IOP) of the cannulated eye was raised to 120 mmHg for 60 minutes by elevating the saline reservoir. Retinal ischemia was confirmed by direct microscopic observation of whitening of the fundus. The reperfusion was confirmed visually when needle was withdrawn from the anterior chamber. One group of animals was treated with Vetropolycin® ophthalmic ointment (Pharmaderm, Melville, N. Y.) on the ischemic eyes and allowed to recover for 24 hours, 48 hours, 7 days and 14 days before sacrifice. Other groups were kept for intravitreous injections of the PEDF and PEDF peptides.
Intravitreous injection of PEDF, PEDF peptides and encapsulated PEDF peptide: One group of animals remained uninjected to monitor ischemic damage. All other groups received intravitreal injections, which were performed under an ophthalmic microscope. […] Intravitreous injection was performed with 30-gauge beveled needle attached to PE10 polyethylene tubing and a 10 μl syringe (Hamilton, Reno, Nev.). The injections were performed through the sclera, approximately 1 mm behind the limbus. The needle remained in the vitreous cavity for 30 seconds after injection then gently withdrawn. Control groups were injected with 1 μl PBS, 1 μl control peptide (1 μg/μl), or blank nanospheres (0.1 mg/μl). […] Vetropolycin® ointment was applied to the injected eyes and animals were allowed to recover for 48 hours or 7 days before sacrifice.
Preparation of retinal tissue: at designated time points, mice were sacrificed by carbon dioxide inhalation followed by, in some cases, cervical dislocation. The eyes were enucleated, fixed in 4% paraformaldehyde for 24 hours, washed with PBS and embedded in paraffin. Five (5) μm thick sections that included the optic nerve were collected. Sections were processed for TUNEL, immunocytochemistry, or histochemical staining with hematoxylin and eosin (Surgipath, Ltd, Richmond, Ill.) using standard methods.
Morphologic and Morphometric Analysis: For each eye, three sections, which included the optic disk and were spaced at least 20 μm apart, were used for morphological analysis. The fields analyzed were 4×250 μm zones sampled from all retinal eccentricities. These zones were 500 μm away from the edge of optic disk or the ora serrata. The average measurement of these 4 zones was used for statistical analysis. The mean thickness of inner nuclear layer (INL) and inner plexiform layer (IPL) was measured using Axiovision3.1 software (Carl Zeiss MicroImaging, Inc., Thornwood, N.Y.). Total surviving cells in the retinal ganglion cell layer at the same locations were counted using light microscopy.
Statistical analysis: Twelve fields per retina were analyzed for each treatment, and a total of 72 fields were used. For statistical analysis, one-way analysis of variance (ANOVA) and Fisher tests were performed; p<0.05 was taken as significant. Data are presented as means and standard deviations.

GFAP = GFAP immunocytochemical labeling of Müller glial cells after transient ischemia; type: in vivo, C57/B16 mice
Description: Induction of transient retinal ischemia in C57/B16 mice: Animal experiments were conducted in accordance with ARVO guidelines and were approved by the Animal Care and Use Committee of Yale University School of Medicine. Transient retinal ischemia was induced in one eye and the contralateral eye served as control. During the operation and recovery period, animals were placed on water heating pads at 37° C. Eighty-one 10-14 weeks male C57/B16 mice (Charles River Laboratories, Wilmington, Mass., weighing […]) were used in this experiment. To induce retinal ischemia, a previously established technique with some modifications was used (Hughes, 1991, Exp Eye Res. 53(5):573-582; Buchi et al., 1991, Opthalmologica 203 (3): 138-147). Briefly, animals were anesthetized by i.p. injection of a mixture of 100 mg/kg Ketamine+10 mg/kg Xylazine. The corneas were topically anesthetized with 0.5% proparacaine hydrochloride (Bausch & Lomb Pharmaceuticals, Inc., Tampa, Fla.), and the pupils dilated with 2.5% phenylephrine (Bausch & Lomb Pharmaceuticals, Inc., Tampa, Fla.). The anterior chambers were cannulated in fully anesthetized animals with a 30-gauge infusion needle connected by PE10 polyethylene tubing and IV set to a physiological saline reservoir. The intraocular pressure (IOP) of the cannulated eye was raised to 120 mmHg for 60 minutes by elevating the saline reservoir. Retinal ischemia was confirmed by direct microscopic observation of whitening of the fundus. The reperfusion was confirmed visually when needle was withdrawn from the anterior chamber. One group of animals was treated with Vetropolycin® ophthalmic ointment (Pharmaderm, Melville, N. Y.) on the ischemic eyes and allowed to recover for 24 hours, 48 hours, 7 days and 14 days before sacrifice. Other groups were kept for intravitreous injections of the PEDF and PEDF peptides.
Intravitreous injection of PEDF, PEDF peptides and encapsulated PEDF peptide: One group of animals remained uninjected to monitor ischemic damage. All other groups received intravitreal injections, which were performed under an ophthalmic microscope. Experimental groups received 1 μl native PEDF protein (1 μg/μl), PEDF82-121 peptide (1 μg/μl), PEDF76-95 peptide (1 μg/μl), PEDF91-110 peptide (1 μg/μl), PEDF106-125 peptide (1 μg/μl) or PLGA PEDF82-121 nanospheres (0.1 mg/μl, less than 1.6 μg PEDF82-121 peptide when fully released) immediately after the end of the transient ischemia. Intravitreous injection was performed with 30-gauge beveled needle attached to PE10 polyethylene tubing and a 10 μl syringe (Hamilton, Reno, Nev.). The injections were performed through the sclera, approximately 1 mm behind the limbus. The needle remained in the vitreous cavity for 30 seconds after injection then gently withdrawn. […]

[2] = target: VEGF receptor KDR (VEGFR2) (Homo sapiens, UniProt P35968); assay: ELISA binding to VEGF receptor KDR
Chain of VEGF receptor KDR (VEGFR2) (P35968 20-1356, species assumed): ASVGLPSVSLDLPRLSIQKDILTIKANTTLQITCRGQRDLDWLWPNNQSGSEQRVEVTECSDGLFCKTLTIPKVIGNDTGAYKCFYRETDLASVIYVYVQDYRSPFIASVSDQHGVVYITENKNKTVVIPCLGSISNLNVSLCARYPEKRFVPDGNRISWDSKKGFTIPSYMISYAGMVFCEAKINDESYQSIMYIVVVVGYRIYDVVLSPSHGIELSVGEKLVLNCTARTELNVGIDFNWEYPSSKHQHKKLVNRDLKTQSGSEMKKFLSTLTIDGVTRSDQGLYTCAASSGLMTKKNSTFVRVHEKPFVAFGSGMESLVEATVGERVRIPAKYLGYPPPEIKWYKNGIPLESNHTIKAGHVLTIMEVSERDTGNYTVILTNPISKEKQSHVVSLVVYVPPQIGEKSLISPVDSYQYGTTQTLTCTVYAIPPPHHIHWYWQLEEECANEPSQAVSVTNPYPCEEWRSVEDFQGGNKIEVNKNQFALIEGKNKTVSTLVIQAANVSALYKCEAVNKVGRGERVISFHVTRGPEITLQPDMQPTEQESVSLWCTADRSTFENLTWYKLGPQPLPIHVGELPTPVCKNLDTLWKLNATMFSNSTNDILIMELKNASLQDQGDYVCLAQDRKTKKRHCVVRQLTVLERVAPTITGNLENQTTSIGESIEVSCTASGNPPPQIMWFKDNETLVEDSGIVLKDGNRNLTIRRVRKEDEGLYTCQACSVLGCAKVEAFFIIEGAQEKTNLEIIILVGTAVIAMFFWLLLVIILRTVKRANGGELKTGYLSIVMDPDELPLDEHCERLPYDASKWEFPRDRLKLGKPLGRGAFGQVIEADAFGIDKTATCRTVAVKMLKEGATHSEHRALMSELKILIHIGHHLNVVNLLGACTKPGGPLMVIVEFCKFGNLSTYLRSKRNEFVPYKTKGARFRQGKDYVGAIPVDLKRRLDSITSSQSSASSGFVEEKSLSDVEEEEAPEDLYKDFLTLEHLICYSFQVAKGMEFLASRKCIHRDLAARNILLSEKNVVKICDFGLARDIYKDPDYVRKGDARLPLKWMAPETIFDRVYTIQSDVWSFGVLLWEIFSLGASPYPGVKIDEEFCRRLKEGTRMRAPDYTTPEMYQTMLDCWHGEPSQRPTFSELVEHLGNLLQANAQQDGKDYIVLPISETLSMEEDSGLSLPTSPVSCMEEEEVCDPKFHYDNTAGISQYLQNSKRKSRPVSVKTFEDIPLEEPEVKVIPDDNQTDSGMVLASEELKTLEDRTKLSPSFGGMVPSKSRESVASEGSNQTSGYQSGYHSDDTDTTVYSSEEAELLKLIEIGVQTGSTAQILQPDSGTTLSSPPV

VEGFR2 = VEGFR2 (Homo sapiens, UniProt P35968); assay: Block of VEGFR2 phosphorylation; settings: compared to recombinant, non-modified human PEDF
Chain of VEGFR2 (P35968 20-1356, species assumed): as above

VEGF = assay: Block of VEGF mitogenic signaling; settings: compared to recombinant, non-modified human PEDF
VEGFR1 = VEGFR1 (Homo sapiens, UniProt P17948); assay: VEGFR1 binding; settings: compared to PEDF purified from human plasma or recombinant non-modified human PEDF
Chain of VEGFR1 (P17948 27-1338, species assumed): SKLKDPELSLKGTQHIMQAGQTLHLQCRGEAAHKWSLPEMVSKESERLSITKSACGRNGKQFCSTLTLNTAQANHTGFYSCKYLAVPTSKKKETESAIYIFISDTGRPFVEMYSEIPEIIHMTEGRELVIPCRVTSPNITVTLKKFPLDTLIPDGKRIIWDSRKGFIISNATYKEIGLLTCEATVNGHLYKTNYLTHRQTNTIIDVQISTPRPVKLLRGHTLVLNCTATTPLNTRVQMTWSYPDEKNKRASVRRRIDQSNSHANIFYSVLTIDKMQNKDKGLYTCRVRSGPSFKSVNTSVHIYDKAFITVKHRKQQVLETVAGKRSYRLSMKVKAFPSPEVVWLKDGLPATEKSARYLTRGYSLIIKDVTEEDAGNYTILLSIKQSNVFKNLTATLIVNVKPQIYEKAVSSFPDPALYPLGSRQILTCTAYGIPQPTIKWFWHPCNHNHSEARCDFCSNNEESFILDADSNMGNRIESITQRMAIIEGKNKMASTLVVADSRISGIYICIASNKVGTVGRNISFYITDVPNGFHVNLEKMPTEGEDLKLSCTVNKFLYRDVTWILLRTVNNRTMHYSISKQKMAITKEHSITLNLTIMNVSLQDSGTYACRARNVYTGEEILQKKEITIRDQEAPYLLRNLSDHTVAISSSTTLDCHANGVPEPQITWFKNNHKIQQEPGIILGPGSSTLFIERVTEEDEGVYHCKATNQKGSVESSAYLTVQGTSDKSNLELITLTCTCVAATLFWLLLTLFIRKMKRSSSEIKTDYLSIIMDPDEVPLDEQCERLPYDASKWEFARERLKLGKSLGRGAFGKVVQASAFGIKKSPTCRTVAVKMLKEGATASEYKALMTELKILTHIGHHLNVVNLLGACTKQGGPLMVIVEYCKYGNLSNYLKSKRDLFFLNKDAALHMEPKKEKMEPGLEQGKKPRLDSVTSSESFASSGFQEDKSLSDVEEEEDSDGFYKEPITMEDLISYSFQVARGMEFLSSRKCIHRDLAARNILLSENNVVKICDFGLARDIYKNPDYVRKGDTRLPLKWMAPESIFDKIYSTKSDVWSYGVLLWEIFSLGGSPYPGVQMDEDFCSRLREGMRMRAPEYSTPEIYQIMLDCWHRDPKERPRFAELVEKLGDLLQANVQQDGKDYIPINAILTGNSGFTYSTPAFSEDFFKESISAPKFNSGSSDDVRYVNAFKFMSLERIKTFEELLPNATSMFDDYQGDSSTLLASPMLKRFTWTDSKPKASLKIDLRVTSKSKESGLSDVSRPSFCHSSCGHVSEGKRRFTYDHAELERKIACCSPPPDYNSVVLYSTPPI

[3] = 7 days post ischemia, free single bolus or nanospheres
[4] = 48 hours after ischemia reperfusion

Molecule: PEDF76-95: residues 76 to 95 of human PEDF, TNVLLSPLSVATALSALSLG (SEQ ID NO: 5) ((1)..(20) Residues 76-95 of human PEDF; listed as Homo sapiens)
- protection of the IPL (in words) ([1]; seven days after ischemic injury): protected
- protection of the INL (in words) ([1]; seven days after ischemic injury, versus control peptide PEDF136-155): protected the INL significantly

Molecule: PEDF91-110: residues 91 to 110 of human PEDF, ALSLGAEQRTESIIHRALYY (SEQ ID NO: 7) ((1)..(20) Residues 91-110 of human PEDF; listed as Homo sapiens)
- protection of the retinal ganglion cell layer (in words) [1, 3]: significantly protecting
- RGCs protected from dying after ischemic injury ([1]; after ischemic injury): about 85%

Molecule: PEDF106-125: residues 106 to 125 of human PEDF, RALYYDLISSPDIHGTYKEL (SEQ ID NO: 9) ((1)..(20) Residues 106-125 of human PEDF; listed as Homo sapiens)
- protection of the retinal ganglion cell layer (in words) [1, 3]: significantly protecting

B1: PEDF protein: full length pigment epithelium-derived factor, a 50 kD protein of the serpin family (protein, listed as Homo sapiens)
chain: MQALVLLLCIGALLGHSSCQNPASPPEEGSPDPDSTGALVEEEDPFFKVPVNKLAAAVSNFGYDLYRVRSSMSPTTNVLLSPLSVATALSALSLGADERTESIIHRALYYDLISSPDIHGTYKELLDTVTAPQKNLKSASRIVFEKKLRIKSSFVAPLEKSYGTRPRVLTGNPRLDLQEINNWVQAQMKGKLARSTKEIPDEISILLLGVAHFKGQWVTKFDSRKTSLEDFYLDEERTVRVPMMSDPKAVLRYGLDSDLSCKIAQLPLTGSMSIIFFLPLKVTQNLTLIEESLTSEFIHDIDRELKTVQAVLTVPKLKLSYEGEVTKSLQEMKLQSLFDSPDFSKITGKPIKLTQVEHRAGFEWNEDGAGTTPSPGLQPAHLTFPLDYHLNQPFIFVLRDTDTGALLFIGKILDPRGP
- surviving cells in the RGC layer compared with non-ischemia control [1, 4]: 85.4%
- thickness of the INL compared with non-ischemia control [1, 4]: 100%
- thickness of the IPL compared with non-ischemia control [1, 4]: 86.6%
- protection of the retinal ganglion cell layer (in words) ([1]; 48 hours post ischemia, versus PBS or PEDF136-155): significantly reduced cell death
- surviving cells in the RGC layer compared with non-ischemia control ([1]; 7 days after injury): 87.4%
- thickness of the INL compared with non-ischemia control ([1]; 7 days after injury): 82.5%
- thickness of the IPL compared with non-ischemia control ([1]; 7 days after injury): 78.2%
- protection of the retinal ganglion cell layer (in words) [1, 3]: significantly reduced cell death
- IPL thickness after ischemic injury (in words) ([1]; compared to PBS injected controls, time not stated): prevented the thinning of the IPL
- GFAP labeling compared to PBS injections (GFAP; 48 hours after transient ischemia): less GFAP labeling
- GFAP staining (GFAP; 7 days after injury): very similar staining

B2: coPEDF: bacterially expressed codon-optimized fusion protein: thioredoxin, His6 tag, thrombin site and S-Tag fused N-terminally to human PEDF (protein)
chain: QNPASPPEEGSPDPDSTGALVEEEDPFFKVPVNKLAAAVSNFGYDLYRVRSSMSPTTNVLLSPLSVATALSALSLGADERTESIIHRALYYDLISSPDIHGTYKELLDTVTAPQKNLKSASRIVFEKKLRIKSSFVAPLEKSYGTRPRVLTGNPRLDLQEINNWVQAQMKGKLARSTKEIPDEISILLLGVAHFKGQWVTKFDSRKTSLEDFYLDEERTVRVPMMSDPKAVLRYGLDSDLSCKIAQLPLTGSMSIIFFLPLKVTQNLTLIEESLTSEFIHDIDRELKTVQAVLTVPKLKLSYEGEVTKSLQEMKLQSLFDSPDFSKITGKPIKLTQVEHRAGFEWNEDGAGTTPSPGLQPAHLTFPLDYHLNQPFIFVLRDTDTGALLFIGKILDPRGP
modifications: left off: large carriers; small tags and cut ends
notes: bacterially expressed codon-optimized fusion protein: thioredoxin, His6 tag, thrombin site and S-Tag fused N-terminally to human PEDF
- binding to VEGF receptor KDR (VEGFR2) [2]: improves binding
- block of VEGFR2 phosphorylation (VEGFR2): greater effect
- block of VEGF mitogenic signaling (VEGF): greater effect
- VEGFR1 binding (VEGFR1): increased VEGFR1 binding
